From patent US20240209089A1 (SUZHOU SMARTNUCLIDE BIOPHARMACEUTICAL, published 2024)
Numbering of substitutions follows the chain as printed.

B1: S5-cHis antibody (VHH)
VHH: QVQLVESGGGLVQAGGSLRVSCAASGGTFSSTAMGWFRQAPGKEREFVAAISWSGGYTYYADSVRGRFTISRDNALNTVSLQMNSLKPEDTAVYYCAADISGLDTVAAGIFTEPNIDYWGKGTLVTVSS
notes: HEK293 construct; an E. coli preparation is also described; Biotinylated for the ForteBio assay; also called SNA006d; SNA006-d
B2: ^125I-SNA006d (VHH)
VHH: B1 VHH
modifications: 125I label by the chloramine T method; labelled residues not stated
B3: S5-cHis-NOTA (VHH)
VHH: B1 VHH
modifications: p-SCN-Bn-NOTA coupled (lysine); sites and number not stated
notes: also called CD8α-cHis-NOTA (S5)
B4: S36-cHis antibody (VHH)
VHH: QVQLVESGGGLVQAGGSLRLSCAASIRTFSDYAMAWFRQGPRKEREFVAAISWNGVTTFYADSVKGRFTISRDDAKNSVYLQMNSLKPEDTAVYYCAGGLNVGWGTHEREYDDWGQGTQVTVSS
notes: HEK293 construct; an E. coli preparation is also described
B5: C29-cHis antibody (VHH)
VHH: QVQLVESGGGLVQAGGSLRLSCVASGFTSDDYVIGWFRQAPGKEREGVSCISSSDGTTNYADSVKGRFTISSDNAKNTVYLQMNSLKPEDTAVYYCAADPMRVCPYSGTYYGILGFGTSGQGTQVTVSS
notes: as for B4
B6: C46-cHis antibody (VHH)
VHH: QVQLVESGGGLVQAGGSLRLSCAASGVTFDDLAIGWFRQVPGKGREGVSTIGTSDGTAYYADSVKGRFTISSDNAKNTVYLQMNSLKPEDTAVYYCAVDLDYGLGSLLPMGYDYWGQGTQVTVSS
notes: HEK293 construct; an E. coli preparation is also described; Biotinylated for the ForteBio assay; also called SNA006c; SNA006-c
B7: C46-cHis-NOTA (VHH)
VHH: B6 VHH
modifications: p-SCN-Bn-NOTA coupled (lysine); sites and number not stated
notes: also called CD8α-cHis-NOTA (C46)
B8: phage clone No. 77 (S29) (VHH)
VHH: QLQLVESGGGLVQPGGSLRLSCTASGIIFSINTMGWYRQAPGKQRELVADISSFGSTNYADSVKGRFTISRDNAKNSVYLQMNSLKPEDTAVYYCNAHDKGWGTVDSWGQGTQVTVSS
B9: S13-cHis antibody (VHH)
VHH: QLQLVESGGGLVQPGGSLRLSCVVSGSIFAINTMGWYRQAPGKQRELVATMHSYGSTNYADSVKGRFTISRDNAKKTVYLQMNSLKPADTAVYYCHADDTGWGTVDSWGQGTQVTVSS
notes: as for B4
B10: C27-cHis antibody (VHH)
VHH: B9 VHH with Y54G, N73A, K75P, T100S, T112I
notes: as for B4
B11: C24-cHis antibody (VHH)
VHH: B9 VHH with L2V, V23A, V24A, S27P, A30S, Y54T, A88D, A97V, T112I
notes: as for B4
B12: C42-cHis antibody (VHH)
VHH: QVQLVESGGGLVQAGGSLRLSCAASGLTFEDYAIGWFRQAPGKEREGISCIRIYDGNTYSAESVKGRFTISSDNAKNQVYLQINTLKPEDTAVYYCAAGSYYSCSVYPDYDMDYWGKGTLVTVSS
notes: HEK293 construct; an E. coli preparation is also described; Biotinylated for the ForteBio assay; also called SNA006b; SNA006-b
B13: ^125I-SNA006a (VHH)
VHH: B12 VHH with V2L
modifications: 125I label by the chloramine T method; labelled residues not stated
B14: C37-cHis-NOTA (VHH)
VHH: B12 VHH with V2L
modifications: p-SCN-Bn-NOTA coupled (lysine); sites and number not stated
notes: also called CD8α-cHis-NOTA (C37); NOTA-CD8α single domain antibody precursor

Experiments:
CD8α-Fc fusion protein [1] = molecular target: T1, CD8α-Fc fusion protein (human); experiment: ELISA on coated CD8α-Fc, antibody after exchange into NaHCO3 buffer, relative to the uncoupled antibody as standard
T1 construct: also called CD8 α-Fc protein; CD8α-Fc tag antigen
T1 sequence (chain, as listed by the source): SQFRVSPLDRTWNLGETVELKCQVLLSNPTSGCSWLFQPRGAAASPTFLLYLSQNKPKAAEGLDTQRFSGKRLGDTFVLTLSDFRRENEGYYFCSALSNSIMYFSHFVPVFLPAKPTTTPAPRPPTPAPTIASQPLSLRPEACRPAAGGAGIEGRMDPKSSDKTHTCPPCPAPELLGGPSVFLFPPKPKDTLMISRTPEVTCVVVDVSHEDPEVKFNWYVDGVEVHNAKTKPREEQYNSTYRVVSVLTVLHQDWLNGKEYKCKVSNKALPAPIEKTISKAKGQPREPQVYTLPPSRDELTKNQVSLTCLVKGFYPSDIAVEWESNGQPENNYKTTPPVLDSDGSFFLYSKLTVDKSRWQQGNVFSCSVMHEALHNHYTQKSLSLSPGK
Protocol: (§1) By using PD-10 column (GE), the buffer of the CD8α-cHis single domain antibody (including C37, C46 and S5) was changed to a NaHCO3 buffer solution with a certain pH, and p-SCN-Bn-NOTA (Macrocyclics, article No. B-605) was dissolved into DMSO with a concentration of 25 mg/mL, and the p-SCN-Bn-NOTA solution whose molar was twice that of lysine on the single domain antibody was added into the CD8α single domain antibody, the above materials reacted for a certain time period at room temperature, the conjugated product was purified by PD-10 column (GE) and concentrated by ultrafiltration.
(§2) The activity of the above CD8α-NOTA after labeling was determined by ELISA. The specific method is as follows: the CD8α-Fc fusion protein was placed in the coated plate in a concentration of 5 μg/well at 4° C. overnight. After blocking with 3% BSA at 37° C., samples subjected to gradient dilution (the uncoupled CD8α single domain antibody was a standard substance) were added to act for 1 hour at 37° C. Then, anti-his-HRP (purchased from Abcam Company) was added to react for 1 hour at room temperature. Then, a chromogenic solution was added, and the absorption value at 450 nm was read.

[2] = molecular target: T2, human CD8α full-length protein (human, UniProt P01732 22-235); experiment: flow cytometry on MC38-CD8α cells, secondary antibody-PE
T2 construct: whole, on cells; The same entry is used for MC38-CD8α transfectants and for human CD8+ T cells from peripheral blood; the assay field says which cells; also called cell surface CD8α; MC38-CD8α cells
T2 sequence (P01732 22-235): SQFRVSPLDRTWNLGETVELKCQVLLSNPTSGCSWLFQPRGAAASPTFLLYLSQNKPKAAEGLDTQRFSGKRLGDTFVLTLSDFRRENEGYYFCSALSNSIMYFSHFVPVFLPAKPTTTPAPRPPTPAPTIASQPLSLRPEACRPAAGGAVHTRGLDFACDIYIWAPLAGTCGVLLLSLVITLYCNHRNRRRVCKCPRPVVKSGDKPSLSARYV
Protocol: Mouse colon cancer MC38 cell lines stable transfected with human CD8α full-length protein gene were constructed to obtain MC38 cells (MC38-CD8α cells) stably expressing human CD8α proteins on the cell membrane. Prior to use, the cells were cultured to >90% convergence. The anti-CD8α single domain antibody was used to perform flow cytometry on these cells for quantitative analysis of indirect immunofluorescence staining so as to determine the quantity of receptors on surface of each cell.
The cells were collected and suspended to a concentration of 2.5×10⁶ cells/mL. 200 μL of cell aliquot samples were mixed with 20 μL of primary antibody, and the obtained mixture was incubated for 30 min on ice. The cells were centrifuged, washed and re-suspended, then 5 μL of secondary antibody-PE conjugate was added, and then the above mixture was incubated for 30 minutes on ice. The cells were washed twice, re-suspended and underwent flow cytometry on BD FACSCelesta™. For each tube, at least 5×10⁴ events were collected. All the analyses were single colors, and PE was detected in […].

CD8α-Fc fusion protein [3] = molecular target: T1, CD8α-Fc fusion protein; experiment: ELISA on coated CD8α-Fc, anti-his-HRP, four-parameter fit
Protocol: (§3) The CD8 α-Fc protein was transiently expressed by HEK293 and purified by protein A affinity chromatography. The plate was coated with the obtained CD8α-Fc protein in a concentration of 0.5 μg/well at 4° C. overnight, and then the gradient dilution series of the obtained anti-CD8α single domain antibody protein was added to react for 1 hour at room temperature. After washing, anti-his horseradish peroxidase labeled antibody was added to react for 1 hour at room temperature. After washing, a chromogenic solution was added, and an absorption value at 450 nm was read. The data processing and plotting analysis were performed by using software SotfMaxPro v5.4. […] Of the 10 selected antibodies (see Table 5 for details), the relative activities of different anti-CD8α single domain antibodies were compared by using C2-cHis as control, so as to reflect the affinity of the antibodies on CD8α. Of the 10 tested antibodies, C37, C42, C46, S5 and S36 have relatively high binding activity.

CD8α-cHis fusion protein = molecular target: T3, CD8α-cHis fusion protein (UniProt P01732 22-182); experiment: BLI (ForteBio Octet), biotinylated antibody on SA sensor, CD8α-chis 6.25-100 nM
T3 construct: not shown: C-terminal His tag
T3 sequence (P01732 22-182): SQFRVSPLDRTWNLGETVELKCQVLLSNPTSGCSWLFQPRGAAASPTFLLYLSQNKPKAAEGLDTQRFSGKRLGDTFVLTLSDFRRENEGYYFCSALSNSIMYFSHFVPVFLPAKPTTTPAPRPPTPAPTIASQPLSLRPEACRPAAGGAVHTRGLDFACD
Protocol: The anti-CD8α single domain antibody-biontin was fixed on an SA biological sensor. Then, CD8α-chis with a concentration of 6.25-100 nM bound to a nano antibody and then dissociated. The binding dynamic variables of four antibodies C37, C42, C46 and S5 were evaluated and determined by using Octet Data Analysis version 9.0, including Kon, Koff and Kd.

CD8α-Fc fusion protein [4] = molecular target: T1, CD8α-Fc fusion protein; experiment: ELISA on coated CD8α-Fc, relative to C2-cHis control
Protocol: as §3

[5] = molecular target: T2, human CD8α full-length protein; experiment: radioligand saturation binding on MC38-CD8 cells, 4 °C, one-site fit
Protocol: Receptor binding reaction: a radioligand saturation method was used, total binding and non-specific binding groups were included.
The cells were incubated for 2 h at 4° C. After that, the supernatant was extracted, the cells were washed 6 times with PBS pre-cooled at 4° C., and 200 μL of PBS was added into each well every time. Finally, the filter membrane was collected, the radioactivity count of each tube of sample and standard sample was measured on the γ counter. Finally, saturation curve fitting was performed by using Prism 7.0 (GraphPad Software, Inc.) software according to the single-point binding model, and then KD and Bmax were calculated.

CD8α-Fc fusion protein [6] = molecular target: T1, CD8α-Fc fusion protein; experiment: ELISA on coated CD8α-Fc, NOTA conjugate, relative to the uncoupled antibody as standard
Protocol: as §1, §2

CD8α-Fc fusion protein [7] = molecular target: T1, CD8α-Fc fusion protein; experiment: phage ELISA on coated CD8α-Fc
Protocol: After 3-4 rounds of panning, 96 clones were randomly picked from the plate subjected to the last round of panning for identification. 96 single colonies were randomly picked and respectively cultured to produce and purify phages. The plate was coated with CD8α-Fc fusion protein at 4° C. overnight, then blocked with 3% BSA, and reacted for 1 hour at 37° C. Subsequently, the phage supernatant obtained after infection was added into each well (the control group was blank phage), and incubated for 1 hour at 37° C. After PBST washing, horseradish peroxidase labeled anti-M13 secondary antibody (purchased from Beijing Yiqiao Shenzhou Biotechnology Co., Ltd.) was added, and reacted for 1 hour at room temperature. After washing, a tetramethylbenzidine (TMB) chromogenic solution was added and an absorption value at 450 nm was read. Meanwhile, the plate was coated with an Fc protein at 4° C. overnight, blocked with 3% BSA, and reacted for 1 hour at 37° C. After washing, the phage supernatant obtained after infection (the control group was blank phage) was added to react for 1 hour at 37° C. After washing, the horseradish peroxide labeled anti-M13 secondary antibody (purchased from Beijing Yiqiao Shenzhou Biotechnology Co., Ltd.) was added to react for 1 hour at room temperature. After that, a TMB chromogenic solution was added and an absorption value at 450 nm was read. Where, when a ratio obtained by an OD value being divided by an OD value of blank control was >=4, it was judged that a candidate antibody could bind the CD8α-Fc protein; meanwhile, a ratio obtained by the CD8α-Fc binding OD value of the above antibody capable of binding the CD8 α-Fc antigen protein being divided by the Fc protein binding OD value was >=5, it was considered that the candidate antibody could specifically bind the CD8α part rather than the Fc part. […] The bacteria in candidate clone well were transferred to an LB liquid culture medium containing 100 μg/mL ampicillin so as to perform plasmid extraction and sequencing.

Binder | Positive rate (%) [2] [%] | EC50 (CD8α-Fc fusion protein [3]) [ng/mL] | Relative activity (%) (CD8α-Fc fusion protein [4]) | further results
B1 | 99.7 | 2.28 | 180 | Relative activity of CD8α-cHis-NaHCO3 (%) (CD8α-Fc fusion protein [1]): 98%; Kd (CD8α-cHis fusion protein): 2.87 nM; koff (CD8α-cHis fusion protein): 0.000445 s⁻¹; kon (CD8α-cHis fusion protein): 155000 M⁻¹ s⁻¹
B2 | – | – | – | Kd [5]: 1.5 nM
B3 | – | – | – | Relative activity of CD8α-cHis-NOTA (%) (CD8α-Fc fusion protein [6]): 105%
B4 | 99.7 | 1.42 | 289 | –
B5 | 98.4 | 3.55 | 61.9 | –
B6 | 99.5 | 1.82 | 175 | Relative activity of CD8α-cHis-NaHCO3 (%) (CD8α-Fc fusion protein [1]): 76%; Kd (CD8α-cHis fusion protein): 1.08 nM; koff (CD8α-cHis fusion protein): 0.000271 s⁻¹; kon (CD8α-cHis fusion protein): 251000 M⁻¹ s⁻¹
B7 | – | – | – | Relative activity of CD8α-cHis-NOTA (%) (CD8α-Fc fusion protein [6]): 20%
B8 | – | – | – | OD450 (CD8α-Fc fusion protein [7]): 1.63
B9 | 96.3 | 2.89 | 142 | –
B10 | 93.6 | 2.28 | 96.4 | –
B11 | 99.4 | 4.59 | 47.9 | –
B12 | 99.9 | 1.18 | 269 | Kd (CD8α-cHis fusion protein): 0.727 nM; koff (CD8α-cHis fusion protein): 0.00042 s⁻¹; kon (CD8α-cHis fusion protein): 578000 M⁻¹ s⁻¹
B13 | – | – | – | Kd [5]: 0.46 nM
B14 | – | – | – | Relative activity of CD8α-cHis-NOTA (%) (CD8α-Fc fusion protein [6]): 77%
